Test results reported in patent US7897569B2, “Use of HMGB fragments as anti-inflammatory agents” (The Feinstein Institute for Medical Research, priority 2001, dated 2011).
Marks after values point to notes of the source that are not given here.

Test system: D-galactosamine-sensitized Balb/c mice
Assay: Toxicity in D-galactosamine-sensitized Balb/c mice (survival)
Format: in vivo
Protocol: The D-galactosamine-sensitized model has been described previously (Galanos et al., Proc Natl. Acad. Sci. USA 76: 5939-5943, 1979; and Lehmann et al., J. Exp. Med. 165: 657-663, 1997). Mice were injected intraperitoneally with 20 mg D-galactosamine-HCL (Sigma)/mouse (in 200 μl PBS) and 0.1 or 1 mg of either HMGB1 B box or vector protein (in 200 μl PBS). Mortality was recorded daily for up to 72 hours after injection; survivors were followed for 2 weeks, and no later deaths from B box toxicity were observed.
To investigate whether the HMGB1 B box has cytokine activity in vivo, we administered HMGB1 B box protein to unanesthetized Balb/c mice sensitized with D-galactosamine (D-gal), a model that is widely used to study cytokine toxicity (Galanos et al., supra). Briefly, mice (20-25 gram, male, Harlan Sprague-Dawley, Indianapolis, Ind.) were intraperitoneally injected with D-gal (20 mg) (Sigma) and B box (0.1 mg/ml/mouse or 1 mg/ml/mouse) or GST tag (vector; 0.1 mg/ml/mouse or 1 mg/ml/mouse), as indicated in Table 1. Survival of the mice was monitored up to 7 days to ensure no late death occurred.

B1: B box: Human HMGB1 mutant containing only the B box, SEQ ID NO:20 (protein)
chain: FKDPNAPKRLPSAFFLFCSEYRPKIKGEHPGLSIGDVAKKLGEMWNNTAADDKQPYEKKAAKLKEKYEKDIAAY
With B1 the Alive/total (0.1 mg/mouse ip with D-gal 20 mg) was 6/6, the Alive/total (1 mg/mouse ip with D-gal 20 mg) was 2/8* and the lethality (D-galactosamine-sensitized mice) was “lethal to D-galactosamine-sensitized mice in a dose-dependent manner”. It also gave a time to death (instances in which death occurred) of at most 12 h.
